Laboratory results: US20230312709A1

Biological target: human platelets (CD61 APC-positive gate P1)
Assay: flow cytometry on diluted human whole blood, platelets gated as CD61 APC-positive (P1), PE goat anti-human IgG Fc secondary [panel hIgG4 iso : P1]

V2R (% of CD61-positive P1 events right of the PE gate): 0.11%
Substance: hIgG4-isotype control (antibody)
